Experiment [1] addresses T1, human VEGF (hVEGF) (human, UniProt P15692 181-395).
T1 construct: also called VEGF-A
T1 sequence: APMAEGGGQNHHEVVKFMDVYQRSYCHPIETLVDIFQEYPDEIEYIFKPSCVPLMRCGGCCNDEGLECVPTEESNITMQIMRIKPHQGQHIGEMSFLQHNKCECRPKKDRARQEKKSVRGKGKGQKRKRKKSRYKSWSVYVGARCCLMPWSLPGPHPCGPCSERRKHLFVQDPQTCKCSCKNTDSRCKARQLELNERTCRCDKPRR
The experiment in a line: SPR. For orientation: Surface plasmon resonance follows binding to a sensor surface in real time, without labels.

For experiment [2], the target named is T2, VEGF (as used in the HUVEC migration assay) (Homo sapiens (Human), UniProt P15692 181-395).
T2 sequence: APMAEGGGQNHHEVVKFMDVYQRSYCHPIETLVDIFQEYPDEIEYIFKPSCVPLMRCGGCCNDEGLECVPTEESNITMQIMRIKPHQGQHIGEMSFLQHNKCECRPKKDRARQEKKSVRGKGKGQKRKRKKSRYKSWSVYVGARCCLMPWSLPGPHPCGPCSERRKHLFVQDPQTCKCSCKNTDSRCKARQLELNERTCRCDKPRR
In words: cell-based or functional assay.

The target of experiment [3] is T1, human VEGF (hVEGF). In words: SPR. This is another data set of the same source.
For another experiment, the target named is human VEGF165 (human, UniProt P15692-4 27-191). The experiment in a line: cell-based or functional assay.
The target of experiment [4] is T1, human VEGF (hVEGF). In words: SPR (FIG. 10D).
Experiment [5] deals with T1, human VEGF (hVEGF). The experiment in a line: SPR. This is another data set of the same source.
The target in experiment [6] is T1, human VEGF (hVEGF). In words: BIACORE SPR on immobilised hVEGF; label beside the mutation on the structure of the VEGF-bound G6 Fab (PDB 2FJG).
In experiment [7] the target is T1, human VEGF (hVEGF). The experiment in a line: SPR single-cycle.
Experiment [8] deals with T1, human VEGF (hVEGF). The experiment in a line: SPR. This is another data set of the same source.
Experiment [9] concerns the target T1, human VEGF (hVEGF). In words: SPR. This is another data set of the same source.
Experiment [10] has as its target T2, VEGF (as used in the HUVEC migration …). The experiment in a line: cell-based or functional assay. The source holds these as a separate data set.
For experiment [11], the target named is T1, human VEGF (hVEGF). The experiment in a line: SPR multiple-cycle.

A word on the Kd: it is the free concentration of one partner at which half of the binding sites on the other are occupied at equilibrium, for simple one-to-one binding. A high value points to a looser complex. One may read the koff as the first-order rate constant of dissociation. As usually defined, the kon is the rate constant with which the complex forms. Higher therefore signals faster complex formation.

B1: G6.31 AAEE (LC-N94A.LC-F83A.HC-A40E.HC-T57E) (Fab, V domains shown)
VH: EVQLVESGGGLVQPGGSLRLSCAASGFTISDYWIHWVRQEPGKGLEWVAGITPAGGYEYYADSVKGRFTISADTSKNTAYLQMNSLRAEDTAVYYCARFVFFLPYAMDYWGQGTLVTVSS
VL: DIQMTQSPSSLSASVGDRVTITCRASQDVSTAVAWYQQKPGKAPKLLIYSASFLYSGVPSRFSGSGSGTDFTLTISSLQPEDAATYYCQQGYGAPFTFGQGTKVEIK
notes: Fab; also called HC-A40E, HC-T57E, LC-F83A, LC-N94A
Regarding B1, in the experiment with human VEGF (hVEGF) [1], binding was put at a Kd of 0.584 nM, the koff came to 0.000741 s⁻¹ and the kon was determined as 1.27e+06 M⁻¹ s⁻¹. In addition, in [2], the “IC50 relative to G6.31, VEGF-induced HUVEC migration” value turned out to be 0.9 fold. In the experiment with human VEGF (hVEGF) [3], this molecule gave an equilibrium dissociation constant (Kd) of 0.58 nM, an off-rate constant (koff) of 0.000741 s⁻¹ and a kon of 1.27e+06 M⁻¹ s⁻¹.

B2: HA100K-G6.31 AARR (other)
VH: EVQLVESGGGLVQPGGSLRLSCAASGFTISDYWIHWVRQAPGKGLEWVAGITPAGGYTRYADSVKGRFTISADTSKNTAYLQMRSLRAEDTAVYYCARFVFFLPYAMDYWGQGTLVTVSS
VL: DIQMTQSPSSLSASVGDRVTITCRASQDVSTAVAWYQQKPGKAPKLLIYSASFLYSGVPSRFSGSGSGTDFTLTISSLQPEDAATYYCQQGYGAPFTFGQGTKVEIK
modifications: free hinge cysteine of the Fab-C heavy chain linked through maleimide to linear 100 kDa hyaluronic acid
For the molecule B2, the “fold increase in potency against the unconjugated parent Fab, pKDR assay” value with human VEGF165 was approximately 7 fold.

B3: G6.31 LC-F83V (Fab, V domains shown)
VH: EVQLVESGGGLVQPGGSLRLSCAASGFTISDYWIHWVRQAPGKGLEWVAGITPAGGYTYYADSVKGRFTISADTSKNTAYLQMNSLRAEDTAVYYCARFVFFLPYAMDYWGQGTLVTVSS
VL: DIQMTQSPSSLSASVGDRVTITCRASQDVSTAVAWYQQKPGKAPKLLIYSASFLYSGVPSRFSGSGSGTDFTLTISSLQPEDVATYYCQQGYGNPFTFGQGTKVEIK
notes: Fab
Turning to B3, the “fold increase in affinity” value in the experiment with human VEGF (hVEGF) [4] was 3 fold.

B4: G6.31 LC-N94A.LC-F83A (Fab, V domains shown)
VH: EVQLVESGGGLVQPGGSLRLSCAASGFTISDYWIHWVRQAPGKGLEWVAGITPAGGYTYYADSVKGRFTISADTSKNTAYLQMNSLRAEDTAVYYCARFVFFLPYAMDYWGQGTLVTVSS
VL: DIQMTQSPSSLSASVGDRVTITCRASQDVSTAVAWYQQKPGKAPKLLIYSASFLYSGVPSRFSGSGSGTDFTLTISSLQPEDAATYYCQQGYGAPFTFGQGTKVEIK
notes: Fab; also called LC-F83A, LC-N94A; LCcombo5
Take B4: in the experiment with human VEGF (hVEGF) [1], the affinity, expressed as Kd, was 1.71 nM; the koff is 0.00111 s⁻¹; the kon turned out to be 648000 M⁻¹ s⁻¹. For the same molecule, the “IC50 relative to G6.31, VEGF-induced HUVEC migration” value in [2] amounted to 5.1 fold. In addition, in the experiment with human VEGF (hVEGF) [3], binding was put at a Kd of 1.71 nM, the koff turned out to be 0.00111 s⁻¹ and the kon amounted to 648000 M⁻¹ s⁻¹. In the experiment with human VEGF (hVEGF) [5], the affinity, expressed as Kd, was 1.43 nM; the koff was found to be 0.000766 s⁻¹; the kon was 537000 M⁻¹ s⁻¹.

B5: G6.31 LC-F83A (Fab, V domains shown)
VH: EVQLVESGGGLVQPGGSLRLSCAASGFTISDYWIHWVRQAPGKGLEWVAGITPAGGYTYYADSVKGRFTISADTSKNTAYLQMNSLRAEDTAVYYCARFVFFLPYAMDYWGQGTLVTVSS
VL: DIQMTQSPSSLSASVGDRVTITCRASQDVSTAVAWYQQKPGKAPKLLIYSASFLYSGVPSRFSGSGSGTDFTLTISSLQPEDAATYYCQQGYGNPFTFGQGTKVEIK
notes: Fab
Take B5: the “fold change in binding affinity (Kd) compared to G6.31” value with human VEGF (hVEGF) [6] was 3 x. Further, in the experiment with human VEGF (hVEGF) [7], the “Fold difference (relative to G6.31)” value is 3.1 fold, binding was put at a Kd of 0.5 nM, the off-rate (koff) was determined as 0.000433 s⁻¹ and the kon stood at 855000 M⁻¹ s⁻¹. Besides, in the experiment with human VEGF (hVEGF) [8], the “fold increase in affinity compared to wild-type G6.31” value is 3 fold. Moreover, in the experiment with human VEGF (hVEGF) [9], the “Fold improved (relative to WT)” value amounted to 4 fold, the Kd stood at 0.132 nM, the koff is 0.000218 s⁻¹ and the kon is 1.65e+06 M⁻¹ s⁻¹.

B6: G6.31 LC-N94A (Fab, V domains shown)
VH: EVQLVESGGGLVQPGGSLRLSCAASGFTISDYWIHWVRQAPGKGLEWVAGITPAGGYTYYADSVKGRFTISADTSKNTAYLQMNSLRAEDTAVYYCARFVFFLPYAMDYWGQGTLVTVSS
VL: DIQMTQSPSSLSASVGDRVTITCRASQDVSTAVAWYQQKPGKAPKLLIYSASFLYSGVPSRFSGSGSGTDFTLTISSLQPEDFATYYCQQGYGAPFTFGQGTKVEIK
notes: Fab
With B6, in experiment [10], the “IC50 (read off the curve), VEGF-induced HUVEC migration” value was approximately 7 nM. In the experiment with human VEGF (hVEGF) [7], the “Fold difference (relative to G6.31)” value amounted to 0.4 fold, binding was characterised by a dissociation constant (Kd) of 3.93 nM, the koff was found to be 0.00131 s⁻¹ and the kon came out at 334000 M⁻¹ s⁻¹. The “IC50 relative to G6.31, VEGF-induced HUVEC migration” value in [2] turned out to be 5.2 fold. Also, in the experiment with human VEGF (hVEGF) [9], the “Fold improved (relative to WT)” value turned out to be 0.5 fold, the Kd came out at 1.06 nM, the koff came out at 0.00169 s⁻¹ and the association rate constant (kon) was found to be 1.59e+06 M⁻¹ s⁻¹. In the experiment with human VEGF (hVEGF) [3], this molecule registered an equilibrium dissociation constant (Kd) of 1.06 nM, a koff of 0.00169 s⁻¹ and a kon of 1.56e+06 M⁻¹ s⁻¹. Moreover, in the experiment with human VEGF (hVEGF) [11], the Kd came to 1.06 nM, the koff was found to be 0.00169 s⁻¹ and the association rate constant (kon) turned out to be 1.59e+06 M⁻¹ s⁻¹.

The record behind these values is patent US20210115124A1 (Genentech, published 2021).
